# Results: the nanobody polyreactivity screen of Harvey et al. (2022)
# Test: yeast display, Sf9 membrane polyspecificity reagent, FACS + sequencing; frameworks hold sequencing errors
# Summary of the method: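 Galactose induction of a Saccharomyces cerevisiae BJ5465 synthetic nanobody display library ran 36–48 hours. The cells were then stained for 1 hour at 4 °C with 10% biotinylated, detergent-solubilized Sf9 membrane reagent, pulled down on streptavidin microbeads and FACS-sorted into low and high (top ~1%) gates on expression and reagent-binding fluorescence. Labels for polyreactivity follow the gate of origin.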
row,Sequence,polyreactivity (PSR sort gate)
1,QVQLVESGGGLVQAGGSLRLSCAASGVIFEYTAMGGYRQAPGKERELVAAITSSGGSTYYADSVKGRFTISRDKAKNTVYLQMNSLKPEDTAVYYCARVRRSAYYQDYYSWGQGTQVTVSS,high polyreactivity
2,QVQLVESGGGLVQAGGSLRLSCAASGYGMGWYRQAPGKEREFVAAITSGGSTNYAVSVKGRFTISRDNAKNTVYLHMNSLKPEDSAVYYCAAAYSLYGHRYDYWGQGTQVTVSS,high polyreactivity
3,QVQLVESGGGLVQAGGSLRLSCAASGYIFADYAMGWYRQAPGKEREFVARIRYRDGSTYYADSVKGRFTISRDNAKNTVYLQMNSLKPEDTAVYYCAAQLGRYSYYPMDYWGKGTQVTVSS,high polyreactivity
4,QVQLVESGGGLVQAGGSLRLSCAASGYIFATYAMGWYRQAPGKERELVAAISWSGGRTYYADSVKGRFTISRDNAKNTVYLQMNSLKPEDTAVYYCNKATSRRVYGYDYWGQGTQVTVSS,high polyreactivity
5,QVQLVESGGGLVQAGGSLRLSCAASGYIFATYAMGWYRQAPGKERELVAAITSTGSTYYADSVKGRFTISRDNAKNTVYLQMNSLKPEDTAVYYCAAVSGYRARYYLYYYWGQGTQVTVSA,high polyreactivity
6,QVQLVESGGGLVQAGGSLRLSCAASGYIFDLNPMGRYRQAPGKERELVAAISTGGGTYYADSVKGRFTISRDNAKNTVYLQMNSLKPEDTAVYYCAADWGYWYAEYDYWGQGTLVTVSS,low polyreactivity
7,QVQLVESGGGLVQAGGSLRLSCAASGYIFDRYAMGWYRQAPGKERELVAAISSDGSTYYADSVKGRFTISRDNAKNTVYLQMNSLKPEDTAVYYCAADGGESAWGGYDYWGQGTQVTVSS,low polyreactivity
8,QVQLVESGGGLVQAGGSLRLSCAASGYIFEDYAMGWYRQAPGKERELVASIDSGSTTNYADSVKGRFTISRDNAKNTVYLQMNSLKPEDTAVYYCAADSYVSPEVRFDYWGQGTQVTVSS,low polyreactivity
9,QVQLVESGGGLVQAGGSLRLSCAASGYIFEVNAMGWYRQAPGKERELVATIDTSSGSTNYADSVKGRFTISRDNAKNTVDLQMNSLKPEDTAVYYCAADDETVFLQDDYWGQGTQVTVSS,low polyreactivity
10,QVQLVESGGGLVQAGGSLRLSCAASGYIFFNAMGWYRQAPGKERELVAAITYPVGSTHYADSVKGRFTISRDNAKNTVYLQMNSLKPEDTAVYYCAAEWYQYLRWYWTYEYYWGQGTQVTVSS,low polyreactivity
11,QVQLVESGGGLVQAGGSLRLSCAASGYIFGINDMAWYIQAPGKERELVAAIRISGGSTYYADSVKGRFTISRDNAKNTVYLQMNSLKPEDTAVYYCNAQDDGGLEWRYEEDDYWGQGTQVTVSS,low polyreactivity
12,QVQLVESGGGLVQAGGSLRLSCAASGYIFGSYAMGWYSQAPGKERELVATISYRAGRTYYADSVKGRFTISRDNAKNTVDLQMNSLTPEDTAVYYCAADLVIYLEYDYWGQGTQVTVSS,low polyreactivity
13,QVQLVESGGGLVQAGGSLRLSCAASGYIFGVYAMGWYRQAPGKERELVAAISYGVGSTYYADSVKGRFTISRDNAKNTVYLQMNSLKPEDTAVYYCAADVFFYVYEAYLLYYWGQGTQVTVSS,low polyreactivity
14,QVQLVESGGGLVQAGGSLRLSCAASGYIFGVYAMGWYRQAPGKERELVAVISSGDRTNYADSVKGRFTISRDNAKNTVYLQMNSLKPEDTAVYYCAADGRSPSYYGYDHWGQGTQVTVSS,low polyreactivity
15,QVQLVESGGGLVQAGGSLRLSCAASGYIFGVYVMGWYRQAPGKERELVAAITRGGGNTYYADSVKGRFTFSRDNAKNPVYLQMNSLKPEDTAVYYCAARSLKSLSRYYYWGQGTQVTVSS,high polyreactivity
16,QVQLVESGGGLVQAGGSLRLSCAASGYIFGWYDMGWYRQAPGKERELVAAIDSGGNTYYADSVKGPFTISRDNAKNTVYLQMNSLKPEDTAVYYCNADYWGWSGPPYEYWGQGTQVTVSS,high polyreactivity
17,QVQLVESGGGLVQAGGSLRLSCAASGYIFGYNAMGWYRPAPGKERELVAAISRSAGRTYYADSVKGRFTISRDNAKNTVYLQMNSLKPEDSAVYYCAAQSYWLGYEYWGQGTQVTVSS,high polyreactivity
18,QVQLVESGGGLVQAGGSLRLSCAASGYIFHLYAMGWYRQAPGKERELVAAISSGGRTYYADSVKGRFTISRDNAKNTVYLQMNSLKPEDTAVYYCAVRSYVNTAVGYYYWGQGTQVTVSS,high polyreactivity
19,QVQLVESGGGLVQAGGSLRLSCAASGYIFHSYAMGWYRQAPGKERELVAAITSSGGSTYYADSVKGRFTISRDNAKNTVYLQMNSLKPEDTAVYYCAAEYYYVYPYYRSPKFDYWGQGTQVTVSS,high polyreactivity
20,QVQLVESGGGLVQAGGSLRLSCAASGYIFKGNVMGWYRQAPGKERELVAAISSSGGRTYYADSVKWRFTISRDNAKNNVYLQMYSLKPEDTAVYYCNTKHRTKPTGPVDYWGQGTQVTVSS,high polyreactivity
21,QVQLVESGGGLVQAGGSLRLSCAASGYIFKPNTMGWYRQAPGKERELVAAITRGGRTKYADSVKGRFTISRDNAKNTVYLQMNSLKPEATAVYYCNKVRTVTTYEYWGQGTQVTVSS,high polyreactivity

row,Sequence,polyreactivity (PSR sort gate)
1,QVQLVESGGGLVQAGGSLRLSCAASGYIFKRYAMGWYRQAPGKERELVAAISGNGGSTYYADSVKGRFTISRDNAKNTVYLQMNSLKPEDTAVYYCNKSGYYSPTSKGEYWGQGTQVTVSS,low polyreactivity
2,QVQLVESGGGLVQAGGSLRLSCAASGYIFKSYVMGWNRQEPGKESELVAAITWSGGSTYYADSVKGRFTISRDNAKNTVYLQMNSLKPEDTAVYYCAAYRRRYRTTYDYWGQGTQVTVSS,high polyreactivity
3,QVQLVESGGGLVQAGGSLRLSCAASGYIFKYYAMGWYIQAPGKERELVASITSGGRTNYADSVKGRFTISRDNAKNTVYLQMNSLKPEDTAVYYCAATSKYQQDPRRYDYWGHGTQVTVSS,high polyreactivity
4,QVQLVESGGGLVQAGGSLRLSCAASGYIFLANAMGWYRQAPGKVRELVAAITSGGGGTYYADSVKGRFTFSRDNAKNTVYLQMNSLKPEDTAVYYCAADHGRDGSSFEYWGQGTQVTVSS,low polyreactivity
5,QVQLVESGGGLVQAGGSLRLSCAASGYIFLRNAMGWSRQAPGKERELVASISSDDTSTHYADSVKGRFTISRDNAKNTVYLQMNSLKPEDTAVYYCAARNTPAYIDYNYWGQGTQVTVSS,low polyreactivity
6,QVQLVESGGGLVQAGGSLRLSCAASGYIFPGNAMGWYRQAPGKERELVAAINWSGTRTYYADSVKGRFTISRDNAKNTVYLQLNSLKPEDTAVYYCNRVWRVPIETYTRYDYWGQGTQVTVSS,high polyreactivity
7,QVQLVESGGGLVQAGGSLRLSCAASGYIFRGYVMGWYRQAPGKERELVAAISYGDGGTYYADSVKGRFTLSRDNAKNTVYLQMNSLKPEDTAVYYCAAPPYSFWGDYYSAGYYYWGQGTQVTVSS,low polyreactivity
8,QVQLVESGGGLVQAGGSLRLSCAASGYIFRIYAMGWYRQAPGKERELVARISSGGGTNYADSVKGRFTISRDNAKNTVYLQMNSLKPEDTAVYYCNAGYGSQRGGVFFYRMGYWGQGTQVTVSS,high polyreactivity
9,QVQLVESGGGLVQAGGSLRLSCAASGYIFRNVMGWYRQAPGKERELVATISGSGGSTYYADSVKGRFTISRDNAKNTVYLQMNSLKPEDTAVYDCSKRWYRLGRYGGYDYWGQGTQVTVSS,high polyreactivity
10,QVQLVESGGGLVQAGGSLRLSCAASGYIFRWYAMGWYRQAPGKERELVARITNGARTYYADSVKGRFTISRDNAKNTVYLQMNSLKPEDTAVYYCAATVPPTYRRYYYWGQGTQVTVSS,high polyreactivity
11,QVQLVESGGGLVQAGGSLRLSCAASGYIFRYYAMGRYRQAPGKERELVAAITARAGRTYYADSVKGRFTISRDNAKNTVYLQMTSLKPEDTAVYYCAAVRTKVWRGPEMDYWGQGTQVNVSS,high polyreactivity
12,QVQLVESGGGLVQAGGSLRLSCAASGYIFRYYAMGWYRQAPGKEREFVAAISRNGGSTYYADSVKGRFTISRDNAKNTVYLQMNSLKPEDTAVYYCNKRVGFLYKYDYWGQGTQVTVSS,high polyreactivity
13,QVQLVESGGGLVQAGGSLRLSCAASGYIFSLNGMGWYRQAPGKVRELVAAITVSGGRTYYADSVKGRFTISRDNAKNTVYLQMNSLKPEDTAVYYCAKRGKYSYWPYYKYDYWGQGTQVTVSS,high polyreactivity
14,QVQLVESGGGLVQAGGSLRLSCAASGYIFTFYTMGWYRQEPGKERDLVAAISQTGGRTYYADSVKGRFTISRDNAKNTVYLEMNSLKPEDTAVYYCAARSKRLAHDYWGQGTQVTVSS,high polyreactivity
15,QVQLVESGGGLVQAGGSLRLSCAASGYIFTGNAMGWYRQAPGKERELVAAIDSGGSTYADSVKGRFTISRDNAKNTVYLQMNSLKPEDTAVYYCNADQNEDTYLSYYGDYDYWGQGTQVTVTS,low polyreactivity
16,QVQLVESGGGLVQAGGSLRLSCAASGYIFTTNAMGWYRQAPGKERELVAAISSSGGSTYYADSVKGRFTISRDNAKNTVYLQMNSLKPEDTAVYYCAVRRSTGSRSPPMYYWGQGTQVTVSS,high polyreactivity
17,QVQLVESGGGLVQAGGSLRLSCAASGYIFTYYAMGWYRQAPGKERELVAAISTSGTSTYYADSVKGRFTISRDNAKNTVYLQMNSLKPEDTAVYYCAKRSGARHRLMDYWGQGTQVTVSS,low polyreactivity
18,QVQLVESGGGLVQAGGSLRLSCAASGYIFVIYAMGRYRQAPGKERELVAAITDGGDNTYYADSVKGRFTISRDNAKNTVYLHMNSLKPEDTAVYYCAADVYLPIAAWEGSLEYYYWGQGTQVTVSS,high polyreactivity
19,QVQLVESGGGLVQAGGSLRLSCAASGYIFVNYGMGWYRQAPGKERELVAVITNGGRTNYADSVKGRFTISRDNAKNTVYLQMNSLKPEDTAVYYCNARSFRQYYYWGQGTQVTVSS,high polyreactivity
20,QVQLVESGGGLVQAGGSLRLSCAASGYIFVVNAMGLDRQAPGKERELVAAIDWGGGSTYADSVKGRFTISRDNAKNTVYLQMNSLKPEDTAVYYCAADLWPYPNDYWGQGTQVTVSS,low polyreactivity
